Laboratory results published in patent US20090117124A1 (Pfizer, published 2009).
Changes are numbered by the printed parent chain. Names may count otherwise. Each block holds one binder with its values, some of them ahead of it.

Assays:
[1] = target: T1, cynomolgus monkey IgE (in cynomolgus serum, Harlan Sera-Lab Ltd) (cynomolgus monkey); test: capture ELISA, Test 2, Cyno 1
T1 construct: Serum was the source of IgE; eight serum samples; also called cynomolgus IgE; Cyno 1 to Cyno 8 serum samples
Method: (§1) Wells were washed once with 150 μL/well wash buffer (0.05% Tween-20, Sigma, Cat. No. P7949/TBS) then blocked with 150 μL/well 1% BSA (Sigma, Cat. No. A7030) in TBS for 2 hours at room temperature. Wells were washed twice with 150 μL wash buffer. 50 μL human (in-house donors) or cynomolgus serum (Harlan Sera-Lab Ltd, Loughborough) was added from neat to at least 1:16 dilution in 1% BSA/0.05% Tween-20/TBS diluent buffer. […] Wells were incubated for 2 hours at 25° C. before washing (3×150 μL wash buffer). […] Wells were incubated for 1 hour at 25° C. then washed (3×150 μL wash buffer). Streptavidin-HRP (Amersham Bioscience, Cat. No. RPN 1231) diluted 1:1000 in diluent buffer was added to all wells and incubated for 45 minutes at room temperature. Wells were washed (3×150 […] wash buffer). 50 μL OPD (Dako, Cat. No. S2045) was added to all wells and the color allowed to develop for 10 minutes before stopping the reaction with 50 μl 0.6M H₂SO₄ and the absorbance measured at 490 nm.

[2] = target: T1, cynomolgus monkey IgE (in cynomolgus …); test: capture ELISA, Test 2, Cyno 2
Method: as §1

[3] = target: T1, cynomolgus monkey IgE (in cynomolgus …); test: capture ELISA, Test 2, Cyno 3
Method: as §1

[4] = target: T1, cynomolgus monkey IgE (in cynomolgus …); test: capture ELISA, Test 2, Cyno 4
Method: as §1

[5] = target: T1, cynomolgus monkey IgE (in cynomolgus …); test: capture ELISA, Test 2, Cyno 5
Method: as §1

[6] = target: T1, cynomolgus monkey IgE (in cynomolgus …); test: capture ELISA, Test 2, Cyno 7
Method: as §1

[7] = target: T1, cynomolgus monkey IgE (in cynomolgus …); test: capture ELISA, Test 2, Cyno 8
Method: as §1

[8] = target: T2, free IgE in human serum (healthy volunteers, in-house donors) (human, UniProt P01854-1 1-428); test: capture ELISA, Test 2, human serum
T2 construct: Kept apart from the bought myeloma IgE because it is native serum IgE of single donors; also called serum IgE
T2 sequence (P01854 other isoform, or with tags, fused parts or gaps): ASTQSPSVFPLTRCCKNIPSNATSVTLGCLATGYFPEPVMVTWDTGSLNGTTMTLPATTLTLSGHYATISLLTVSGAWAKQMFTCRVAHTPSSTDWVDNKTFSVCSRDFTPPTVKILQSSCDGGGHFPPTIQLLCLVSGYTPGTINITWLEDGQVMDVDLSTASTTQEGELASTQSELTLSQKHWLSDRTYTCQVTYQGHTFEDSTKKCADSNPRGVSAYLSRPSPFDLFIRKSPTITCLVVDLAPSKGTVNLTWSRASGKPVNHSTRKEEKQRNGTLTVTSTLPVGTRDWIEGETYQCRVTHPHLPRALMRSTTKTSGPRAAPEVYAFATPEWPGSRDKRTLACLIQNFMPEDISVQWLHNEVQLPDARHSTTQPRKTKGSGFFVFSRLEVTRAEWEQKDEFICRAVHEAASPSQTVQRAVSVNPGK
Method: as §1

[9] = target: T2, free IgE in human serum (healthy …); test: serum free IgE depletion ELISA; DIN 0461
Method: (§2) The next day ELISA plates were washed 1× with 300 μL/well wash buffer (0.05% Tween-20, Sigma, Cat. No. P7949/TBS) then blocked with 150 μL/well 1% BSA (Sigma, Cat. No. A7030) in TBS for 1 hour at room temperature.

[10] = target: T2, free IgE in human serum (healthy …); test: serum free IgE depletion ELISA; DIN 0649
Method: as §2

[11] = target: T3, human IgE (Human myeloma, azide free, Serotec, Cat. No. PHP008X2) (human, UniProt P01854 1-546); test: inhibition of IgE binding to RBL-2H3 (FcεR1) cells
T3 construct: mature; Bought full length human myeloma IgE; in the BIAcore kinetics Serotec PHP008X2 or Europa Bioproducts CP1035K was used; also called full length human IgE; human immunoglobulin E
T3 sequence (P01854 whole entry): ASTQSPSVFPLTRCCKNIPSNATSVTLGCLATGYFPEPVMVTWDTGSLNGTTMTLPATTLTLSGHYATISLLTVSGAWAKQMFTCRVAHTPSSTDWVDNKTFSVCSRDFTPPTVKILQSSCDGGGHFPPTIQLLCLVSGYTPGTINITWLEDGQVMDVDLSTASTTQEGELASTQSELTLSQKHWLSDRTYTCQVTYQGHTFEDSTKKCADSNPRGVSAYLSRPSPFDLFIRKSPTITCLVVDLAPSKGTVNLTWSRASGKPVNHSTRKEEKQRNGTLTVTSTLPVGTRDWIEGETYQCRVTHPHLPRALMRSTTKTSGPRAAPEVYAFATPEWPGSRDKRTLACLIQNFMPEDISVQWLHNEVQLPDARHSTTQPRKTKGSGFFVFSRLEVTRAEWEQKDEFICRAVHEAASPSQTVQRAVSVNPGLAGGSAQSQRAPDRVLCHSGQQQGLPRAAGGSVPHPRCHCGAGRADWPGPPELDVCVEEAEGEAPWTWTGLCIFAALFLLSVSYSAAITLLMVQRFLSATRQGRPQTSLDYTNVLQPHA
Method: RBL-2H3 (FcεR1) cells were cultured in MEM-Earles (Invitrogen Cat. No. 2109002) supplemented with 2 mM L-Glutamine (Sigma, Cat. No. G7513), 1 mg/mL Geneticin Liquid (Invitrogen Cat. No. 10131027) and 15% FBS (PAA Laboratories GmbH, Cat. No. A15-043). RBL-2H3 (FcεR1) cells were seeded into sterile 96-well plates (Costar, Fisher Scientific, Cat. No. TKY-521-090S) at 1×10⁵ cells/well and cultured overnight at 37° C., 5% CO₂ in a humidified atmosphere. The next day cells were washed 3× with 150 μL/well wash buffer (10% BSA, Sigma Cat. No A7030, in PBS, Sigma, Cat. No D8537). […] Cells were washed 3× with 150 μL/well wash buffer and then incubated with 50 μL/well streptavidin-HRP (Amersham Bioscience, Cat. No. RPN 1231) diluted 1:250, for 45 minutes. Cells were washed 3× with 150 μL/well wash buffer. 50 μL OPD (Dako, Cat. No. S2045) was added to all wells and the colour allowed to develop for 10 minutes before stopping the reaction with 50 μL 0.6M H₂SO₄ and the absorbance measured at 490 nm.

[12] = target: T2, free IgE in human serum (healthy …); test: serum free IgE depletion ELISA; DIN 0321 experiment 2
Method: as §2

[13] = target: T2, free IgE in human serum (healthy …); test: serum free IgE depletion ELISA; DIN 0451 experiment 2
Method: as §2

[14] = target: T2, free IgE in human serum (healthy …); test: serum free IgE depletion ELISA; DIN 0623 experiment 2
Method: as §2

[15] = target: T3, human IgE (Human myeloma, azide free, …); test: BIAcore 3000, antibody immobilised, full length human IgE injected
Method: An immobilization binding response of 50-600 RU was obtained using CM5 sensor chips (BIAcore™) and 10 mM sodium acetate, pH 5.0 as immobilization buffer. The reference flow cell was activated (with EDC-NHS) and blocked (with ethanolamine) but no protein was immobilized. […] A regeneration step was included after the dissociation phase; the conditions used for the various antibodies are given in Table 17 below.
All sensorgrams were fitted locally using BIA evaluation software 4.1 (BIAcore™) and Scrubber software version 2.0 (BioLogic Software).

- IgE concentration detected [1]: 289 ng/mL
- IgE concentration detected [2]: 328 ng/mL
- IgE concentration detected [3]: 309 ng/mL
- IgE concentration detected [4]: 38 ng/mL
- IgE concentration detected [5]: 630 ng/mL
- IgE concentration detected [6]: 0 ng/mL
- IgE concentration detected [7]: 56 ng/mL
- IgE concentration detected [8]: 431 ng/mL
- IC25 ng/mL [9]: 1.47 µg/mL
- IC25 ng/mL [10]: 1.95 µg/mL
- IC50 [11]: < 0.5 µg/mL
- IC25 ng/mL [12]: 7.9 µg/mL
- IC25 ng/mL [13]: 39.7 µg/mL
- IC25 ng/mL [14]: 4.13 µg/mL
- Kd [15]: 1.32 nM
- koff [15]: 3.11e-05 s⁻¹
- kon [15]: 23600 M⁻¹ s⁻¹
B1: 5.948.1 (recombinant) (antibody, human IgG2, kappa, V domains shown)
VH: QVQLVQSGAEVKKPGASVKVSCKASGYTFTSYDINWVRQATGQGLEWMGWMDPNSGNTGYAQKFQGRVTMTRNTSISTAYMELSSLRSEDTAVYYCARGHYDSDGYYSFSGMDVWGQGTTVTVSS
VL: not shown
notes: Human IgG2 kappa; leader omitted; Two batches were tested in some assays; also called recombinant 5.948.1; 5.948.1 - Batch 1 (762.8 µg/mL)

- IgE concentration detected [1]: 170 ng/mL
- IgE concentration detected [2]: 199 ng/mL
- IgE concentration detected [3]: 178 ng/mL
- IgE concentration detected [4]: 25 ng/mL
- IgE concentration detected [5]: 420 ng/mL
- IgE concentration detected [6]: 0 ng/mL
- IgE concentration detected [7]: 36 ng/mL
- IgE concentration detected [8]: 408 ng/mL
- IC25 ng/mL [9]: 0.34 µg/mL
- IC25 ng/mL [10]: 0.39 µg/mL
- IC50 [11]: < 0.5 µg/mL
- IC25 ng/mL [12]: 2.55 µg/mL
- IC25 ng/mL [13]: 10.5 µg/mL
- IC25 ng/mL [14]: 0.76 µg/mL
- Kd [15]: 0.159 nM
- koff [15]: 2.42e-05 s⁻¹
- kon [15]: 151000 M⁻¹ s⁻¹
B2: 5.948.1 Hc-H100Y (antibody, human IgG2, kappa, V domains shown)
VH: B1 VH with H100Y
VL: not shown
notes: Human IgG2 kappa; leader omitted; also called 5.948.1 (H100Y); 5.948.1 H100Y
